# Measured values published in the supplement of paper PMC7877785.
# ± gives the uncertainty stated by the source.
# Test: self-splicing fitness, log relative to wild type (ln ratio); higher = more splicing; Tetrahymena group I intron in knt gene, E. coli kanamycin selection, DiMSum; sequences stand for … in CUCUCU…GGAGGGAAAAGUUAUCAGGCAUGCACCUGGUAGCUAGUCUUUAAACCAAUAGAUUGCAUCGGUUUAAAAGGCAAGACCGUCAAAUUGCGGGAAAGGGGUCAACAGCCGUUCAGUACCAAGUCUCAGGGGAAACUUUGAGAUGGCCUUGCAAAGGGUAUGGUAAUAAGCUGACGGACAUGGUCCUAACCACGCAGCCAAGUCCUAAGUCAACAGAUCUUCUGUUGAUAUGGAUGCAGUUCACAGACUAAAUGUCGGUCGGGGAAGAUGUAUUCUUCUCAUAAGAUAUAGUCGGACCUCUCCUUAAUGGGAGCUAGCGGAUGAAGUGAUGCAACACUGGAGCCGCUGGGAACUAAUUUGUAUGCGAAAGUAUAUUGAUUAGUUUUGGAGUACUCGUGGUCG
# Outline: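 Colonies from six replicate transformations of E. coli BL21(DE3) were pooled and amplicon-sequenced on an Illumina HiSeq 2500. The library placed an intron with all eight P1ex-region nucleotides randomised inside the knt kanamycin-resistance gene on pET-22b(+), and cells grew overnight at 37°C or 30°C on LB agar with or without 25 μg/mL kanamycin (plus 100 μg/mL carbenicillin, 50 μM IPTG, 0.2% rhamnose). Fitness is the DiMSum error-weighted combination of wild-type-normalised replicate fold changes, kanamycin versus none.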
Sequence,self-splicing fitness (ln) (30 °C),self-splicing fitness (ln) (37 °C)
CGAGAGCAAUAUUACGUGUG,-2.97 ± 0.12,-2.5 ± 0.15
CUCGAGCAAUAUUACGACCC,–,-1.61 ± 0.46
UGAUAGCAAUAUUACGAAAG,-3 ± 0.14,-1.67 ± 0.15
GCGAAGCAAUAUUACGGAUG,-1.48 ± 0.078,-1.32 ± 0.11
CUGUAGCAAUAUUACGCCCG,-0.124 ± 0.26,-0.221 ± 0.31
CGGUAGCAAUAUUACGCUGU,-3.2 ± 0.23,-3.02 ± 0.37
GUGAAGCAAUAUUACGCAGA,-3.85 ± 0.25,-2.39 ± 0.25
AUAAAGCAAUAUUACGGUGU,-1.25 ± 0.068,-0.672 ± 0.082
UAGCAGCAAUAUUACGUCGG,-0.706 ± 0.1,-0.878 ± 0.13
GUGGAGCAAUAUUACGGUCC,-2.12 ± 0.19,-1.91 ± 0.24
GGGAAGCAAUAUUACGAGGC,-3.08 ± 0.29,-1.4 ± 0.2
UCGUAGCAAUAUUACGAAAU,-3.8 ± 0.33,-1.65 ± 0.26
GCAUAGCAAUAUUACGUUUG,-3.21 ± 0.13,-1.91 ± 0.15
UCCUAGCAAUAUUACGGGUC,-3.81 ± 0.22,-2.71 ± 0.28
CGUCAGCAAUAUUACGAGUG,-0.944 ± 0.056,-0.00372 ± 0.077
AGAAAGCAAUAUUACGAUUC,-1.03 ± 0.095,-1.07 ± 0.14
GCCAAGCAAUAUUACGAACA,-2.36 ± 0.16,-2.2 ± 0.17
CCAGAGCAAUAUUACGUGGU,-2.75 ± 0.12,-2.96 ± 0.21
ACGAAGCAAUAUUACGGCGG,-0.224 ± 0.089,0.0437 ± 0.13
CGGGAGCAAUAUUACGCCUG,-2.39 ± 0.28,–
UUCGAGCAAUAUUACGUCUC,-4.02 ± 0.47,-2 ± 0.16
GCCGAGCAAUAUUACGUCCA,-1.27 ± 0.48,-1.32 ± 0.32

Sequence,self-splicing fitness (ln) (30 °C),self-splicing fitness (ln) (37 °C)
GGCGAGCAAUAUUACGCGAG,-2.7 ± 0.24,-2.24 ± 0.32
UUUUAGCAAUAUUACGAUGG,-1.32 ± 0.19,-1.22 ± 0.2
GGUUAGCAAUAUUACGAAGU,-0.268 ± 0.2,-0.745 ± 0.18
UUAAAGCAAUAUUACGACCG,-0.379 ± 0.12,0.397 ± 0.16
GCAUAGCAAUAUUACGACCG,-0.896 ± 0.17,0.516 ± 0.14
CCACAGCAAUAUUACGCCUG,-1.51 ± 0.092,-0.296 ± 0.1
UGGCAGCAAUAUUACGUGUA,-1.54 ± 0.089,-0.712 ± 0.084
GCUAAGCAAUAUUACGACUG,-0.97 ± 0.1,-0.946 ± 0.14
AAUAAGCAAUAUUACGCGCG,-0.258 ± 0.11,0.0567 ± 0.15
AAGAAGCAAUAUUACGCGCU,-0.931 ± 0.11,0.0502 ± 0.12
CGUUAGCAAUAUUACGGGUU,-3.4 ± 0.24,-2.42 ± 0.25
UUUAAGCAAUAUUACGUCUC,-1.11 ± 0.29,-1.83 ± 0.39
AGUAAGCAAUAUUACGAAAU,-3.49 ± 0.21,-2.18 ± 0.17
CGGAAGCAAUAUUACGAAUG,-0.506 ± 0.079,-0.137 ± 0.12
AGUGAGCAAUAUUACGCGAC,-1.74 ± 0.32,-1.46 ± 0.31
CUGUAGCAAUAUUACGUACC,–,-0.725 ± 0.38
UCAAAGCAAUAUUACGGGUU,-3.13 ± 0.15,-2.59 ± 0.15
CGCCAGCAAUAUUACGUUUU,-3.8 ± 0.15,-2.76 ± 0.16
UGGGAGCAAUAUUACGUUUU,-4.43 ± 0.4,-2.51 ± 0.33
CAUGAGCAAUAUUACGGACA,-3.32 ± 0.48,-0.812 ± 0.25
ACGCAGCAAUAUUACGGGGG,-3.86 ± 0.2,-2.54 ± 0.19
